Target: T1, Fzd3 (receptor of the AP binding assays) (UniProt Q61086 23-666)
T1 sequence (looked up): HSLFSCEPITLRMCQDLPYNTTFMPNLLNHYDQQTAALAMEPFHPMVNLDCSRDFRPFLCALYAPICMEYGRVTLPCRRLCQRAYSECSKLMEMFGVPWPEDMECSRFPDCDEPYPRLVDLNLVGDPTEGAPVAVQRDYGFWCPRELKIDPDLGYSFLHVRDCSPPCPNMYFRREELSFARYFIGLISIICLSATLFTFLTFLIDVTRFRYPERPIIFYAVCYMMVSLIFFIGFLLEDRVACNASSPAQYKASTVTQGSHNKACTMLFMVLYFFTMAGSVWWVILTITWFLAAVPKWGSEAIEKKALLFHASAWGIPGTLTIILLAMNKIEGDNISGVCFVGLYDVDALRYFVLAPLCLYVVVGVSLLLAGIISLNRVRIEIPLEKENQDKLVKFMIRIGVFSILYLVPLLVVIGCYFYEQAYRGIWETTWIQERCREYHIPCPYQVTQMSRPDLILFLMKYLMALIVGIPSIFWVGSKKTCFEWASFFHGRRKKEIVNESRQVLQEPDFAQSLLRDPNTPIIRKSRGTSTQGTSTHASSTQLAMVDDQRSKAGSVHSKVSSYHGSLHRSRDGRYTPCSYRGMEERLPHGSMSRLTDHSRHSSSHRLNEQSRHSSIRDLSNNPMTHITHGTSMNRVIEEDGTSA
Test: alkaline phosphatase

Kd: 270 pM
B1: AP-tagged TSK protein (TSK-AP) (ligand, mouse, UniProt Q8CBR6 18-354, looked up)
chain: TRPCFPGCQCEEETFGLFDSFSLIRVDCSSLGPHIVPVPIPLDTAHLDLSSNRLETVNESVLAGPGYTTLAGLDLSYNLLTSIMPSAFSRLRYLESLDLSHNGLAALPAEIFTSSPLSDINLSHNRLREVSISAFTTHSQGRALHVDLSHNLIHRLLPHPARASLPAPTIQSLNLSWNRFRAVPDLRDLPLRYLSLDGNPLATINPDAFMGLAGLTHLSLASLQGILHLPPHGFRELPGLQVLDLSGNPKLKWAGAEVFSGLGLLQELDLSGSSLVPLPEMLLHHLPALQSVSVGQDVQCRRLVREGAYHRQPGSSPKVVLHCGDTQESAARGPDIL

Reference: publication PMC13480463 (Science translational medicine, 2021)
